{"source": "paper PMC3357956", "about": "(Nature structural & molecular biology, 2011)", "target": "the molecule itself", "assay": "thioflavin T fluorescence"}
{"protein": "QGGFGNSRGGGAGLGNNQGSNMGGGMNFGAFSINPAMMAAAQAALQ (peptide, UniProt Q13148 286-331, looked up)", "note": "[wild-type TDP46mer (synthetic TDP-43 peptide Gln286-Gln331)]", "values": [{"measurement": "binding result", "value": "binds"}]}
